Experimental data published in the supplement of paper PMC12042874.
± gives the uncertainty stated by the source.

test: amyloid nucleation score (Sup35N fusion, yeast selection) (log enrichment); library NNK1; higher = more nucleation; inactive = no reads after selection
Summary of the method: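 The nucleation score is the log enrichment of output over input reads, calculated with DiMSum and centred on the mode score of non-aggregating sequences. Sequences with under 100 input reads were excluded. Reads came from Illumina sequencing of plasmid inserts from psi-negative yeast expressing Sup35N fused to peptides of 20 random codons, induced 24 hours with 100 μM copper sulfate and grown 7 days at 30°C without adenine and uracil.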

Q: Which amyloid nucleation score does the source give for VYKTRVYVDCYEILDGSKEM here?
A: The amyloid nucleation score was 0.491 ± 0.45.

Q: For SLMWLWIFSRAGSLSLLLIA, which amyloid nucleation score is on record?
A: The amyloid nucleation score was 0.718 ± 1.2.

Q: With SRMLPVMFSGP as the substance, how does the amyloid nucleation score read?
A: Its amyloid nucleation score is -1.06 ± 0.89.

Q: Which amyloid nucleation score does the source give for YSNRWNYWVYVFGQVF here?
A: The amyloid nucleation score was -0.437 ± 0.42.

Q: Which amyloid nucleation score does the source give for LRCTCVECQWKRCESTLGGG here?
A: Its amyloid nucleation score is -1.02 ± 2.7.

Q: Which amyloid nucleation score does the source give for GGPDTMEMGSFGDARATDAG here?
A: The amyloid nucleation score was 1.03 ± 0.93.

Q: With EEPLIGLDKMPYPGTVYEIA as the substance, how does the amyloid nucleation score read?
A: The amyloid nucleation score was 0.066 ± 0.87.

Q: With CYNNF as the substance, how does the amyloid nucleation score read?
A: Its amyloid nucleation score is “inactive”.

Q: With PCRGL as the substance, how does the amyloid nucleation score read?
A: The amyloid nucleation score was -0.628 ± 2.1.

Q: With KMAYRVVNNLGCSIMCNICT as the substance, how does the amyloid nucleation score read?
A: Its amyloid nucleation score is 7.616 ± 0.046.

Q: With KSSWSSAS as the substance, how does the amyloid nucleation score read?
A: Its amyloid nucleation score is -0.076 ± 0.3.

Q: Which amyloid nucleation score does the source give for LRFHEGVLGAMFEGSVCVLE here?
A: The amyloid nucleation score was -0.01 ± 1.5.

Q: With RMLIYVQFTRRDKVSNPLM as the substance, how does the amyloid nucleation score read?
A: Its amyloid nucleation score is -0.685 ± 0.33.

Q: With RDEVGIVHRMSEPKRYGGIK as the substance, how does the amyloid nucleation score read?
A: Its amyloid nucleation score is -1.11 ± 1.5.

Q: For VHSCIYVSKTSLELARYQML, which amyloid nucleation score is on record?
A: The amyloid nucleation score was “inactive”.

Q: With KAFLTRRFLNLYVRIKPYMV as the substance, how does the amyloid nucleation score read?
A: Its amyloid nucleation score is -0.503 ± 0.3.

Q: For EYLCLI, which amyloid nucleation score is on record?
A: The amyloid nucleation score was 0.147 ± 0.45.

Q: Which amyloid nucleation score does the source give for MNRYFFYLIRVFLRGYH here?
A: Its amyloid nucleation score is -0.094 ± 0.64.

Q: With ERVAQKILHLKSMPITARPV as the substance, how does the amyloid nucleation score read?
A: Its amyloid nucleation score is 0.002 ± 1.1.

Q: Which amyloid nucleation score does the source give for GLRCFCTFHCMWFVLNSSN here?
A: Its amyloid nucleation score is 0.025 ± 0.34.

Q: Which amyloid nucleation score does the source give for TMLTWASRRLDYFSGALCFM here?
A: The amyloid nucleation score was -0.119 ± 0.45.

Q: With YIAQSFELKA as the substance, how does the amyloid nucleation score read?
A: Its amyloid nucleation score is 0.23 ± 0.53.

Q: With FLNLAFAVSRLGLCMWYVAF as the substance, how does the amyloid nucleation score read?
A: The amyloid nucleation score was 0.319 ± 0.87.

Q: For MITSR, which amyloid nucleation score is on record?
A: The amyloid nucleation score was 1.11 ± 0.53.

Q: Which amyloid nucleation score does the source give for TIFLINIPANFSMGMLHAHR here?
A: The amyloid nucleation score was 0.303 ± 0.86.

Q: For VIIAEVDVVA, which amyloid nucleation score is on record?
A: The amyloid nucleation score was -0.186 ± 0.57.

Q: Which amyloid nucleation score does the source give for FQVVFGYSFMNMATISCVYE here?
A: Its amyloid nucleation score is 5.03 ± 0.054.

Q: With YVYWR as the substance, how does the amyloid nucleation score read?
A: The amyloid nucleation score was -1.82 ± 2.7.

Q: For MAACMYSCSMSAVEPLHTYS, which amyloid nucleation score is on record?
A: The amyloid nucleation score was 0.039 ± 0.67.

Q: For IYGIMLG, which amyloid nucleation score is on record?
A: The amyloid nucleation score was “inactive”.

Q: For RPFSDLSWTLDRVWHRPCWY, which amyloid nucleation score is on record?
A: Its amyloid nucleation score is 1.04 ± 0.6.

Q: For LCGSVRFRTGLECKQPSSCI, which amyloid nucleation score is on record?
A: Its amyloid nucleation score is -1.02 ± 2.7.

Q: For MGEATGSGISADDVYVQGEY, which amyloid nucleation score is on record?
A: Its amyloid nucleation score is 4.26 ± 0.069.

Q: For CSLIIFAYRRLEFMILFYFD, which amyloid nucleation score is on record?
A: The amyloid nucleation score was -0.26 ± 0.49.

Q: For LGNMHREDYGSSGSRARFKG, which amyloid nucleation score is on record?
A: The amyloid nucleation score was -0.612 ± 0.74.

Q: For FCSKTFL, which amyloid nucleation score is on record?
A: The amyloid nucleation score was 1.35 ± 0.46.

Q: With ALLESGCWSMWFVSFRFELA as the substance, how does the amyloid nucleation score read?
A: The amyloid nucleation score was -0.119 ± 0.76.

Q: For VVTVLGVGLDSSSSGWWFVA, which amyloid nucleation score is on record?
A: Its amyloid nucleation score is 0.168 ± 0.46.

Q: With GLGLHWSEASFRLRMDRRFA as the substance, how does the amyloid nucleation score read?
A: The amyloid nucleation score was 3.79 ± 0.069.

Q: Which amyloid nucleation score does the source give for ALKFPMWDSVEYGDCVGSLI here?
A: Its amyloid nucleation score is “inactive”.

Q: With HHKTFV as the substance, how does the amyloid nucleation score read?
A: The amyloid nucleation score was “inactive”.

Q: For FATQTVAACVQCLKTRSDVF, which amyloid nucleation score is on record?
A: The amyloid nucleation score was 0.029 ± 1.1.

Q: With SYVIGNTGGSIKSEARGWDI as the substance, how does the amyloid nucleation score read?
A: The amyloid nucleation score was 0.071 ± 0.35.

Q: Which amyloid nucleation score does the source give for TSYIQW here?
A: The amyloid nucleation score was -0.359 ± 0.29.

Q: For KCGIVVNVQHRKPRGRIPAQ, which amyloid nucleation score is on record?
A: The amyloid nucleation score was -1.02 ± 0.67.

Q: With CYVVKVLFRPIY as the substance, how does the amyloid nucleation score read?
A: Its amyloid nucleation score is 1.01 ± 0.97.

Q: For SSMVVVGRRNLSDWKEYYPM, which amyloid nucleation score is on record?
A: The amyloid nucleation score was -0.283 ± 0.45.

Q: Which amyloid nucleation score does the source give for IMNMSSNIRK here?
A: Its amyloid nucleation score is -0.539 ± 0.34.

Q: Which amyloid nucleation score does the source give for ALLMGDFGCFLYTFGWFYAK here?
A: Its amyloid nucleation score is -0.173 ± 0.41.

Q: For EKMHQSYLSRYYIDR, which amyloid nucleation score is on record?
A: Its amyloid nucleation score is 1.12 ± 0.54.

Q: Which amyloid nucleation score does the source give for SLTAVISTKVL here?
A: The amyloid nucleation score was -0.663 ± 1.7.

Q: With LFKSPWGDDHSIST as the substance, how does the amyloid nucleation score read?
A: Its amyloid nucleation score is 0.434 ± 0.29.

Q: For RSHQSQGMPSLFNLSLVLFY, which amyloid nucleation score is on record?
A: Its amyloid nucleation score is 6.489 ± 0.064.

Q: For QERTMVLMLHMYYSGCAILM, which amyloid nucleation score is on record?
A: Its amyloid nucleation score is 0.761 ± 0.56.

Q: With YNPGG as the substance, how does the amyloid nucleation score read?
A: Its amyloid nucleation score is -0.248 ± 0.26.

Q: For YTGIPRSS, which amyloid nucleation score is on record?
A: Its amyloid nucleation score is 0.203 ± 0.28.

Q: With ISVLVHMMRKAFVQG as the substance, how does the amyloid nucleation score read?
A: The amyloid nucleation score was 0.768 ± 0.39.

Q: With ITFERGYCTKNITFATTTCP as the substance, how does the amyloid nucleation score read?
A: The amyloid nucleation score was 1.23 ± 0.47.

Q: For MVSNAGDIPMRRLESLRLLR, which amyloid nucleation score is on record?
A: The amyloid nucleation score was 0.748 ± 0.53.

Q: With LECSNSNLWCTPN as the substance, how does the amyloid nucleation score read?
A: Its amyloid nucleation score is 0.712 ± 0.69.

Q: Which amyloid nucleation score does the source give for LDWSMLRTELVIGILRSGRE here?
A: Its amyloid nucleation score is 0.248 ± 0.52.

Q: With ILYMLPILRKLVSFEFNYIC as the substance, how does the amyloid nucleation score read?
A: Its amyloid nucleation score is 0.117 ± 0.21.

Q: With FEKRALVSDSFYCNGVSRV as the substance, how does the amyloid nucleation score read?
A: Its amyloid nucleation score is 0.082 ± 0.24.

Q: For SNHQLEYRL, which amyloid nucleation score is on record?
A: The amyloid nucleation score was 1.52 ± 0.55.

Q: With WVSSDITGRG as the substance, how does the amyloid nucleation score read?
A: The amyloid nucleation score was 1.87 ± 0.65.

Q: Which amyloid nucleation score does the source give for NWMTLRWVLGGLSNGFDGSH here?
A: The amyloid nucleation score was 4.41 ± 0.073.

Q: With ATQRKDIA as the substance, how does the amyloid nucleation score read?
A: The amyloid nucleation score was “inactive”.

Q: Which amyloid nucleation score does the source give for RIGNGVLKDYRLFFFETSFT here?
A: Its amyloid nucleation score is -0.727 ± 0.36.

Q: For RIMPEKGRNSHWMYIRVQER, which amyloid nucleation score is on record?
A: The amyloid nucleation score was 1.12 ± 0.58.

Q: For VVGRGKLQCVLFRHDTAYRV, which amyloid nucleation score is on record?
A: The amyloid nucleation score was -0.058 ± 0.28.

Q: With WYENMFN as the substance, how does the amyloid nucleation score read?
A: The amyloid nucleation score was 3.15 ± 0.14.

Q: For VTCRLPETMPGGTWLNMIIR, which amyloid nucleation score is on record?
A: Its amyloid nucleation score is “inactive”.

Q: For VFKFKTM, which amyloid nucleation score is on record?
A: The amyloid nucleation score was 1.24 ± 0.81.

Q: Which amyloid nucleation score does the source give for NTANIIDTGGDSTPLISRSC here?
A: Its amyloid nucleation score is -0.958 ± 0.96.

Q: For FDRRLCFVG, which amyloid nucleation score is on record?
A: The amyloid nucleation score was 0.024 ± 0.52.

Q: Which amyloid nucleation score does the source give for RKSAQYHG here?
A: The amyloid nucleation score was “inactive”.

Q: Which amyloid nucleation score does the source give for LVRLTCDMNNFKCQLMFQIF here?
A: The amyloid nucleation score was 1.17 ± 0.38.

Q: With IYIIPFDRNLYPISIHVLVR as the substance, how does the amyloid nucleation score read?
A: Its amyloid nucleation score is “inactive”.

Q: For TRCYFNSLMCTDTNSCIAGV, which amyloid nucleation score is on record?
A: The amyloid nucleation score was -0.135 ± 0.26.

Q: Which amyloid nucleation score does the source give for YTIEYTSITVIVCGILYNT here?
A: The amyloid nucleation score was 6.932 ± 0.05.

Q: Which amyloid nucleation score does the source give for FNMIVSYAFVAFIVNIKVEI here?
A: The amyloid nucleation score was 1.99 ± 0.12.

Q: For VLLIRYYFMKFDLSL, which amyloid nucleation score is on record?
A: The amyloid nucleation score was 0.359 ± 0.47.

Q: For FSMWRSWNNNYSLISHSTGH, which amyloid nucleation score is on record?
A: The amyloid nucleation score was 0.367 ± 1.2.

Q: For VIMCNI, which amyloid nucleation score is on record?
A: Its amyloid nucleation score is 0.068 ± 0.93.

Q: Which amyloid nucleation score does the source give for CEFGSGQALIYGYTMYTWTT here?
A: The amyloid nucleation score was 0.703 ± 0.49.
